Experimental findings from patent US20260055173A1 are described below.

For test [1], the target named is monkey PD-1 (ACRO, His tag) (monkey) (UniProt B0LAJ3). Description: ELISA, monkey PD-1 (His tag) coated, anti-human IgG Fc-HRP. (In general: ELISA stands for enzyme-linked immunosorbent assay.)
In test [2] the target is human VEGF (ACRO, His tag) (human) (UniProt P15692). Briefly: ELISA, human VEGF (His tag) coated, anti-human IgG Fc-HRP.
Test [3] deals with biotin-labeled human VEGF (ACRO, biotinylated protein) (human) (UniProt P15692). Description: dual (bridging) ELISA: human PD-1 (His tag) coated, antibody, then biotinylated human VEGF, streptavidin-HRP.
Sequence of biotin-labeled human VEGF (ACRO, biotinylated protein) (human) (P15692 other isoform, or with tags, fused parts or gaps limits assumed): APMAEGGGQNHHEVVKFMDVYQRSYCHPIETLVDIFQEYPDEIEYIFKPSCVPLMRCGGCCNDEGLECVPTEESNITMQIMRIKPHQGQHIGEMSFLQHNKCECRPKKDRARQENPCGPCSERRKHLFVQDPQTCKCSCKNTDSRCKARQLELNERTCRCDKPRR

Sequence of monkey PD-1 (ACRO, His tag) (monkey) (B0LAJ3 entry or part of it limits assumed, form in doubt): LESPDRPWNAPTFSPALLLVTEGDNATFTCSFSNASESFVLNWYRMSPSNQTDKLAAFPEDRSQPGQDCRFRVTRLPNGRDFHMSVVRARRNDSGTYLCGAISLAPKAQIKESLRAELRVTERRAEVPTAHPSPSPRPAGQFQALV
Sequence of human VEGF (ACRO, His tag) (human) (P15692 other isoform, or with tags, fused parts or gaps limits assumed): as the sequence (P15692 other isoform, or with tags, fused parts or gaps limits assumed) above

For orientation: EC50 means the concentration needed to bring the measured effect to its halfway point. In test [1], Keytruda (antibody) showed an EC50 of 0.187 nM and a TOP OD of 3.08 OD450.

Substance Opdivo (antibody) yielded an EC50 in test [1] of 0.153 nM. For the same substance, the figures for the TOP OD in test [1], in test [2] and in test [3] were 2.99 OD450, 0.048 OD450 and 0.048 OD450, respectively.
